T1: SAP90/PSD-95 associated protein 3 (endogenous, mouse brain) (mouse (endogenous in striatum), UniProt Q6PFD5 1-977)
T1 sequence (looked up): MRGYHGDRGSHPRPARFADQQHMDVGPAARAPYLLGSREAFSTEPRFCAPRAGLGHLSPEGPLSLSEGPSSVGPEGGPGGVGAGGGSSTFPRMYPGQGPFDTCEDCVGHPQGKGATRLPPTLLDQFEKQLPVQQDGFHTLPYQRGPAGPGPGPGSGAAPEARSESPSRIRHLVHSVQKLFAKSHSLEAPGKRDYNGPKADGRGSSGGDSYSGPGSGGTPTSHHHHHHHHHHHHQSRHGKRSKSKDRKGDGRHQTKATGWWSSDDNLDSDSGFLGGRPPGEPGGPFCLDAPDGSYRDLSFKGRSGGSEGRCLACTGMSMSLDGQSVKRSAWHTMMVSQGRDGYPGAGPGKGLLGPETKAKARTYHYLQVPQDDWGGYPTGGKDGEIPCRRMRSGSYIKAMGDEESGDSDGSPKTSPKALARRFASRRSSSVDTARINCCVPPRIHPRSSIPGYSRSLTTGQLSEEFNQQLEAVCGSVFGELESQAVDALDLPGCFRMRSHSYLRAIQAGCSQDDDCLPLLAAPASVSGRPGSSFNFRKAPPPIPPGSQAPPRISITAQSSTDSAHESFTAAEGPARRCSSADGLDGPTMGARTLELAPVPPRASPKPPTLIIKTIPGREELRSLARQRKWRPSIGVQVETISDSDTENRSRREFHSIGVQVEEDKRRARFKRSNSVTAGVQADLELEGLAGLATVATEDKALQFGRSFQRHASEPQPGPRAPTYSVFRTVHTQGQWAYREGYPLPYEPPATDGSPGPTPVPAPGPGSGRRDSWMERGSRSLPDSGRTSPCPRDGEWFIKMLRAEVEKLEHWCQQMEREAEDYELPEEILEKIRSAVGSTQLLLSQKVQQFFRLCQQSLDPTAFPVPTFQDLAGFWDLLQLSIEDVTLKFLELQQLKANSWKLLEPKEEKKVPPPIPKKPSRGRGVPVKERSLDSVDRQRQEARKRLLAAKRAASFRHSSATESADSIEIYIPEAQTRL


Assays:
[1] = target: HA-tagged spinophilin (human, full-length) (human, UniProt Q96SB3 1-817); assay: co-IP
[2] = target: T1, SAP90/PSD-95 associated protein 3 …; assay: co-IP

Chain of HA-tagged spinophilin (human, full-length) (Q96SB3 whole entry): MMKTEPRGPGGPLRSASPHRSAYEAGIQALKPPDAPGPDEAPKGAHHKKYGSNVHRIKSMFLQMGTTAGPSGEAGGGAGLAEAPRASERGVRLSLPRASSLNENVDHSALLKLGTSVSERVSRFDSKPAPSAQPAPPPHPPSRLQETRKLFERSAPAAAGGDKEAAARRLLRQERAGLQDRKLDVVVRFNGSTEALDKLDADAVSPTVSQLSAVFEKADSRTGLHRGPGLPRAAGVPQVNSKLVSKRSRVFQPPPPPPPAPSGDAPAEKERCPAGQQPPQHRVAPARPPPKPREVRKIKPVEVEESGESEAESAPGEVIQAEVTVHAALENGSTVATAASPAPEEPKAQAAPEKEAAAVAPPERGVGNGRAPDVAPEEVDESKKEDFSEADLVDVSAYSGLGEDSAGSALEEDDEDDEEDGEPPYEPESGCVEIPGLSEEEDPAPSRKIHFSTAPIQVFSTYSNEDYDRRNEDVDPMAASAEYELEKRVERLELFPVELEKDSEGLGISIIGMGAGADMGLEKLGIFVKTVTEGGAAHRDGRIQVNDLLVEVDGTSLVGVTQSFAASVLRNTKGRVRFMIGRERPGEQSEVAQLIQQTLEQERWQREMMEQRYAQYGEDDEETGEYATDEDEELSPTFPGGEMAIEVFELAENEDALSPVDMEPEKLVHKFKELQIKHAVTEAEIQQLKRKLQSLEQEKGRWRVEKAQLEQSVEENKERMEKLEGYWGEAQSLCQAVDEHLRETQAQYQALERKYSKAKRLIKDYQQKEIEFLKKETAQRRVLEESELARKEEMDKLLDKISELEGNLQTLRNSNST

| fold change of association, PKCbeta overexpressed and activated over control [1] | fold change of association, mGluR5 overexpressed over control [1] | fold greater association, WT over SAPAP3 KO [2] | Binder |
| --- | --- | --- | --- |
| ~3.3 fold | ~12 fold | – | V5-tagged SAPAP3 (rat) (natural protein, UniProt P97838 1-977, looked up) MRGYHGDRGSHPRPARFADQQHMDVGPAARAPYLLGSREAFSTEPRFCAPRAGLGHLSPEGPLSLSEGPSSVGPEGGPGGVGAGGSSSTFPRMYPGQGPFDTCEDCVGHPQGKGATRLLPTFLDQFEKQLPVQQDGFHTLPYQRGPAGPGPGPGSGAAPEARSESPSRIRHLVHSVQKLFAKSHSLEAPGKRDYNGPKAEGRSSSGGDSYSGPGSGGPPTSHHHHHHHHHHHHQSRHGKRSKSKDRKGDGRHQTKATGWWSSDDNLDSDSGFLGGRPPGEPGGPFCLDAPDGSYRDLSFKGRSGGSEGRCLACTGMSMSLDGQSVKRSAWHTMMVSQGRDGYPGAGPGKGLLGPETKAKARTYHYLQVPQDDWGGYPTGGKDGEIPCRRMRSGSYIKAMGDEESGDSDGSPKTSPKALARRFASRRSSSVDTARINCCVPPRIHPRSSIPGYSRSLTTGQLSEEFNQQLEAVCGSVFGELESQAVDALDLPGCFRMRSHSYLRAIQAGCSQDDDCLPLLAAPASVSGRPGSSFNFRKAPPPIPPGSQAPPRISITAQSSTDSAHESFTAAEGPARRCSSADGLDGPTMGARTLELAPVPPRASPKPPTLIIKTIPGREELRSLARQRKWRPSIGVQVETISDSDTENRSRREFHSIGVQVEEDKRRARFKRSNSVTAGVQADLELEGLAGLATVATEDKALQFGRPFQRQASEPQPGPRAPTYSVFRTVHTQGQWAYREGYPLPYEPPATDGSPGPPPVPAPGPGSGRRDSWMERGSRSLPDSGRTSPCPRDGEWFIKMLRAEVEKLEHWCQQMEREAEDYELPEEILEKIRSAVGSTQLLLSQKVQQFFRLCQQSLDPTAFPVPTFQDLAGFWDLLQLSIEDVTLKFLELQQLKANSWKLLEPKEEKKVPPPIPKKPSRGRGVPVKERSLDSVDRQRQEARKRLLAAKRAASFRHSSATESADSIEIYIPEAQTRL |
| – | – | ~3 fold | spinophilin (endogenous, mouse brain) (natural protein) not shown |

From PMC6294707 (Molecular and cellular neurosciences, 2018)
